Test results from paper PMC11625884.

Target: AMBRA1^WD40 (UniProt Q9C0C7)
Test: co-IP; AMBRA1 antibody (Proteintech) coupled to Dynabeads, mixed with lysate of SHSY5Y cells overexpressing AMBRA1 constructs; washed; western blot for the protein of interest

UniProt Q9C0C7, sequence (Q9C0C7 whole entry): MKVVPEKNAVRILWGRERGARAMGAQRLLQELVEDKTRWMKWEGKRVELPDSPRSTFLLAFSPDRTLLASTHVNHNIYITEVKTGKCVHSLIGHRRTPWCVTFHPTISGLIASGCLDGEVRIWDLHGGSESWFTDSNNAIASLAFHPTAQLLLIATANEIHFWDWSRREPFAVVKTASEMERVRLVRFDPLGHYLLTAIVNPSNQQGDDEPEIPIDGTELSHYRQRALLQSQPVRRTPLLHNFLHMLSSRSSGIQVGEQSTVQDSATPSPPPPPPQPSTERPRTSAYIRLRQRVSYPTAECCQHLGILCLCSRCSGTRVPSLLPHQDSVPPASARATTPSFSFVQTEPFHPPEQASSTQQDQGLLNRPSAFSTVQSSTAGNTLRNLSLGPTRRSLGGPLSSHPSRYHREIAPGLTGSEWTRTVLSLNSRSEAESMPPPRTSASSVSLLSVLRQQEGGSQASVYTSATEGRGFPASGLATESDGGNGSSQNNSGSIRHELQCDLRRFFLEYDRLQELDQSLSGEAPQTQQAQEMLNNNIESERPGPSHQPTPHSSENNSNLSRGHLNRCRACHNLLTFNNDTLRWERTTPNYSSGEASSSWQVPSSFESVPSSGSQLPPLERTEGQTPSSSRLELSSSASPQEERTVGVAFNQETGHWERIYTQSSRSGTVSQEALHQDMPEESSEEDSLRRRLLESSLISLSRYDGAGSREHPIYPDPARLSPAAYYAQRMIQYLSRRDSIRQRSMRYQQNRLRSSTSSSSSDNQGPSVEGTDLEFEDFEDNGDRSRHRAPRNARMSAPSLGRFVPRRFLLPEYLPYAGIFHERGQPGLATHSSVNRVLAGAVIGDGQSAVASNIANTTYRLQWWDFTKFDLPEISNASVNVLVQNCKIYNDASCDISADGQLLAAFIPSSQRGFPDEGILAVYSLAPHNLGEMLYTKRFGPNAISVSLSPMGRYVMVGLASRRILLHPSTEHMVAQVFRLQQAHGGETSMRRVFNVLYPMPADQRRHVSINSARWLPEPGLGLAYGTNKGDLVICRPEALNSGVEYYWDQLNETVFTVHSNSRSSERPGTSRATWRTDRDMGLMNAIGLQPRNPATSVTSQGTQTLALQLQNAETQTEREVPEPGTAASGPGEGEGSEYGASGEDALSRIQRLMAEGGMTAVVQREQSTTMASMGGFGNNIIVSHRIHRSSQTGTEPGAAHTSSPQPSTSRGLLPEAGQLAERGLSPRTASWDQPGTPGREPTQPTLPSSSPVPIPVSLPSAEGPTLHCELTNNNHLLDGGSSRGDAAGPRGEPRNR

fold change of the AMBRA1/DDB1 interaction against AMBRA1^WT: 0.5 fold
Substance: DDB1 (from UniProt Q16531 1-1140) (natural protein)
